For 3 molecules, Kd results are on record in patent US20250170257A1 (NANOLATTIX BIOTECHNOLOGY, published 2025).

Assay [1] addresses T1, tissue factor (UniProt P13726 33-251, limits assumed).
T1 construct: also called TF; antigen tissue factor
In words: SPR (Biacore S200), antibody amine-coupled on CM5 chip, tissue factor as analyte 1.125-18 nM; MAb02. The source says:
(§1) The humanized anti-tissue factor antibody was coupled to the 2nd channel on the surface of the CM5 chip via amino groups, the 1st and the 3rd channels were used as reference channels, the tissue factor flew through the chip surface as the analyte (mobile phase). […] The Kinetics/Affinity program of Bicore S200 was run to measure the affinity.
(SPR reads the build-up and loss of mass on a sensor chip optically.)

For assay [2], the target named is T1, tissue factor. In words: SPR (Biacore S200), same method, tissue factor as analyte 12.5-200 nM; parent antibody before modification; tissue factor 12.5-200 nM.
Excerpt: as §1

Assay [3] concerns the target T1, tissue factor. Put plainly: SPR (Biacore S200), antibody amine-coupled on CM5 chip, tissue factor as analyte 1.125-18 nM; MAb01.
Excerpt: as §1

T1 sequence (P13726 33-251 limits assumed): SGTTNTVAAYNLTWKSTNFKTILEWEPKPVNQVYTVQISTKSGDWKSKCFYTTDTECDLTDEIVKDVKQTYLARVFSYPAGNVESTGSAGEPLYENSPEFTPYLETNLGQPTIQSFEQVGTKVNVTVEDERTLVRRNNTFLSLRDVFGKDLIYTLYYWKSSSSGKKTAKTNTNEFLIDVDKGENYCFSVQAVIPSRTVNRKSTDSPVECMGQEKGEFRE

B1: humanized anti-tissue factor antibody MAb02 (antibody, V domains shown)
VH: QIQLVQSGPEVVKPGASVRVSCKGSGYSFTDYNIYWVRQSPAKGLEWIGYIDPYNGLTIYDQNFRAKATLSVDHSTSNAYMEINSLRYEDTAVYFCARDVTSALEFWGQGTSVTVSS
VL: DIQMTQSPASISASVGERVTITCLGSQTIDTYLAWYLQKPGRSPQLLIYAATQLADGVPSRFSASGSGTDFSLTISSLQPEDVATYYCQNVYSSPFTFGQGNKLEIKR
notes: Full heavy chain (449 aa) and light chain (214 aa), expressed in CHO-dhfr- cells
One may read the Kd as the free concentration of one partner at which half of the binding sites on the other are occupied at equilibrium, for simple one-to-one binding. B1 gave a Kd with tissue factor [1] of 1 nM.

B2: humanized antibody against tissue factor before modification (CN 107446047A) (antibody, V domains shown)
VH: EVQLQQSGPELVKPGASVKVSCKASGYTFTHFNVYWVRQSPGKGLEWIGYIDPDNGITFYDENFMGKATLTVDKSSSTAYMQLNSLTSEDSAVYYCARDVTTAVDFWGQGTTLTVSS
VL: DIQMTQSPSSLSASVGDRVTITCLATQTLDTWLAWYQQKPGKAPQLLIYAATYLADGVPSRFSGSGSGTDFTFTISSLQPEDFATYYCQLVYSSPSTFGQGTKLEIK
notes: also called humanized antibody before modified
In the case of B2, the Kd with tissue factor [2] stood at 33.7 nM.

B3: humanized anti-tissue factor antibody MAb01 (antibody, V domains shown)
VH: QIQLVQSGPELVKPGASVQVSCKTSGYSFTDYNVYWVRQSPAKGIEWIGYIDPYNGLTIYEQNFRGKGTLSLDHSTSTAYMELNSLRYEDTAVYFCARDVTTALDFWGQGTSVTVSS
VL: DIQMTQSPASISASIGERVTITCLASQTIDTWLAWFLQKPGRSPNLLIYAATNLADGVPYRFSASGSGNDFSLTISSLNPEDVATYYCQQVYSSPFTFGQGNKLEIRR
B3 registered a Kd with tissue factor [3] of 0.357 nM.
